Test results taken from US20120040474A1 (published 2012).

Assays:
Experiment in all cases: SPR, denatured RNase B
PNGase F E206A mutant = target: T1, PNGase F E206A mutant (Flavobacterium meningosepticum, UniProt P21163 41-354)
T1 sequence: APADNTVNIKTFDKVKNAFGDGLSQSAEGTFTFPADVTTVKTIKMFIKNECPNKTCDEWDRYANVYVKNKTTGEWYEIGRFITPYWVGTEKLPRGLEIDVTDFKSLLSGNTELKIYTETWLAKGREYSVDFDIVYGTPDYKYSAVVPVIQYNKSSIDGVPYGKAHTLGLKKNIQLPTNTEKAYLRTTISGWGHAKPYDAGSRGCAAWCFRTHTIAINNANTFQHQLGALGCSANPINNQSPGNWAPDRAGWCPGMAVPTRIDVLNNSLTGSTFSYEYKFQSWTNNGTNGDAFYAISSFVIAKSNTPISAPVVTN

[1] = target: T2, PNGase F D60A/R125A mutant (Flavobacterium meningosepticum, UniProt P21163 41-354)
T2 sequence: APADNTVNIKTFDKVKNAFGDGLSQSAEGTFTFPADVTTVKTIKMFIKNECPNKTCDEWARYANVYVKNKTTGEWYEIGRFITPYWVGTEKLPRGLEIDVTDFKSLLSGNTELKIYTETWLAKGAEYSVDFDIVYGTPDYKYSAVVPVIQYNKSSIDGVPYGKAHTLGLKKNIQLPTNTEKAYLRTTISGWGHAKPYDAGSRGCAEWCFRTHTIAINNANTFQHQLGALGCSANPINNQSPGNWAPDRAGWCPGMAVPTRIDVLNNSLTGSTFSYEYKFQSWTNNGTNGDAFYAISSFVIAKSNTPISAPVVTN

[2] = target: T3, PNGase F D60A/E206R mutant (Flavobacterium meningosepticum, UniProt P21163 41-354)
T3 sequence: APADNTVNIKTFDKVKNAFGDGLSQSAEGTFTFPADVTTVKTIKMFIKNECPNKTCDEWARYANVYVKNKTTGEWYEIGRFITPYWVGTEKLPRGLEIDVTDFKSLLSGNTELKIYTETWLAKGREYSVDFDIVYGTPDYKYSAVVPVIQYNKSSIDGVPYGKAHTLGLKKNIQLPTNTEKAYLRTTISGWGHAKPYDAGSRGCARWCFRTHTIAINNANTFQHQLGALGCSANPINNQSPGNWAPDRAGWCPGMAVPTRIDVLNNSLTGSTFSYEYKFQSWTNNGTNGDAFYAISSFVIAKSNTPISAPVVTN

[3] = target: T4, PNGase F D60A/E206K mutant (Flavobacterium meningosepticum, UniProt P21163 41-354)
T4 sequence: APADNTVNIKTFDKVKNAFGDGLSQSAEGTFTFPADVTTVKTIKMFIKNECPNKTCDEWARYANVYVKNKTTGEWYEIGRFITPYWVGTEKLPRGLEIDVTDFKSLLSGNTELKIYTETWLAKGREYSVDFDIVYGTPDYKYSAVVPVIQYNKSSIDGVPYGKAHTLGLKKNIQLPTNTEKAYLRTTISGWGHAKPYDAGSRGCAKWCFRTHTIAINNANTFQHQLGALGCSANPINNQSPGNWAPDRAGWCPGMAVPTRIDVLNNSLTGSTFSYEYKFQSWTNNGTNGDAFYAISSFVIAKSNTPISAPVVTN

PNGase F D60A mutant = target: T5, PNGase F D60A mutant (Flavobacterium meningosepticum, UniProt P21163 41-354)
T5 sequence: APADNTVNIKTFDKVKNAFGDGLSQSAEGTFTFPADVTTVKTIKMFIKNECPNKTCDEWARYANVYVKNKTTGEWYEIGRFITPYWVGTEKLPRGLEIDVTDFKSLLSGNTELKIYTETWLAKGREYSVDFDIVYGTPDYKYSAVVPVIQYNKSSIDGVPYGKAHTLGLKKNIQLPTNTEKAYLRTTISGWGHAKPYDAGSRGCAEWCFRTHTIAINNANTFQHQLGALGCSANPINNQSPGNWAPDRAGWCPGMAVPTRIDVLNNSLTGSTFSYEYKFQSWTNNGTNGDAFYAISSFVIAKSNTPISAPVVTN

PNGase F D60N mutant = target: T6, PNGase F D60N mutant (Flavobacterium meningosepticum, UniProt P21163 41-354)
T6 sequence: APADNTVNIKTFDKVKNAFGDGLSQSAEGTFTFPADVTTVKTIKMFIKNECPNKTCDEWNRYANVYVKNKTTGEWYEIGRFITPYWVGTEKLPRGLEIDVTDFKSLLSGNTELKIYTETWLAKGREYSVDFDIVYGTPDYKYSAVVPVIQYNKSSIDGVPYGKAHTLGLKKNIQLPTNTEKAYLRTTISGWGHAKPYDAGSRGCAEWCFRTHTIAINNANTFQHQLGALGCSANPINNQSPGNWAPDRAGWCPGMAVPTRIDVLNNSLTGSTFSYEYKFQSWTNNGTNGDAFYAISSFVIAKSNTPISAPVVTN

[4] = target: T7, PNGase F D60A/D57A mutant (Flavobacterium meningosepticum, UniProt P21163 41-354)
T7 sequence: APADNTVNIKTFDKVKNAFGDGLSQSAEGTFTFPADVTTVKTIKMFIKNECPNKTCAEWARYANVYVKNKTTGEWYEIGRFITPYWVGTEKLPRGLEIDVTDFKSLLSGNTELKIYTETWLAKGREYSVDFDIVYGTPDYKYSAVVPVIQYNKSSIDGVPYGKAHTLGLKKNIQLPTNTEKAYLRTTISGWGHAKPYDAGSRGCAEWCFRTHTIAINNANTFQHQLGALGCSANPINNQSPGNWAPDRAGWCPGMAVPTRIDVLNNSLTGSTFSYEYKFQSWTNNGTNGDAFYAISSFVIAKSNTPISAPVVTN

[5] = target: T8, PNGase F D60A/E206Q mutant (Flavobacterium meningosepticum, UniProt P21163 41-354)
T8 sequence: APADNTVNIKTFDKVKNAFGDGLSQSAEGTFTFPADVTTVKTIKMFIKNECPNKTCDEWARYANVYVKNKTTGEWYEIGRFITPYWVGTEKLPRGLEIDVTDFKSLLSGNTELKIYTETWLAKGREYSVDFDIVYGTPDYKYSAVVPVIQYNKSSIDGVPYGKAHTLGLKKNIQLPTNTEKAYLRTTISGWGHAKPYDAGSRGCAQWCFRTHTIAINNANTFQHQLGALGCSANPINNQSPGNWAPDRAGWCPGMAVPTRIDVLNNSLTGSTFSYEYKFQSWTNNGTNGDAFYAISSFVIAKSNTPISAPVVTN

[6] = target: T9, PNGase F D60A/E206A mutant (Flavobacterium meningosepticum, UniProt P21163 41-354)
T9 sequence: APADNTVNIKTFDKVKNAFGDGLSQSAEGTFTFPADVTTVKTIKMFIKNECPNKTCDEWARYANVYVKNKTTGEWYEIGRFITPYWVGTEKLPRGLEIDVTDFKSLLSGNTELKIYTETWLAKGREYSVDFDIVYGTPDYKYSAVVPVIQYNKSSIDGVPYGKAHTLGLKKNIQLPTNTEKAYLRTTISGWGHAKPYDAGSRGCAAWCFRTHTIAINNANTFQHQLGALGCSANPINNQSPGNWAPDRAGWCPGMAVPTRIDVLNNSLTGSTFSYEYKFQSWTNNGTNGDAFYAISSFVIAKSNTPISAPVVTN

B1: denatured glycoprotein RNase B (enzyme)
chain: KETAAAKFERQHMDSSTSAASSSNYCNQMMKSRNLTKDRCKPVNTFVHESLADVQAVCSQKNVACKNGQTNCYQSYSTMSITDCRETGSSKYPNCAYKTTQANKHIIVACEGNPYVPVHFDASV
modifications: a single N-glycosylation site predominantly occupied by high mannose oligosaccharides; protein denatured
notes: Recognition by the PNGase F mutants and by Con A goes through the N-linked glycan on the protein; also called denatured RNase B; dRNAse B
- Kd (PNGase F E206A mutant): 11 µM
- Kd [1]: 18 µM
- Kd [2]: 27 µM
- Kd [3]: 18 µM
- Kd (PNGase F D60A mutant): 11 µM
- Kd (PNGase F D60N mutant): 21 µM
- Kd [4]: 7 µM
- Kd [5]: 18 µM
- Kd [6]: 20 µM
